Data set [1] addresses T1, SB100X transposase (synthetic Sleeping Beauty transposon, K14R;K33A;R115H;R214D;K215A;E216V;N217Q;M243H;T314N). The data set can be described thus: MST; nonspecific, monophasic; Full-length MST: 50 mM Tris pH 7.5, 5 mM MgCl2, 300 mM NaCl, 2% glycerol, 50 mM Arg-Glu, 1 mM TCEP, 0.1% Triton X-100, 0.1 mg/ml BSA, 30 nM Cy5-DNA, room temp. To be noted: protein: recombinant; tags: Ni-NTA purified; label: Cy5 (5' forward strand).

Data set [2] deals with T2, SB10 transposase (synthetic Sleeping Beauty transposon). The description is as above. The conditions noted are these: protein: recombinant; tags: Ni-NTA purified; label: Cy5 (5' forward strand).
Data set [3] concerns the target T3, SB100X-H19Y (synthetic Sleeping Beauty transposon, K14R;H19Y;K33A;R115H;R214D;K215A;E216V;N217Q;M243H;T314N). As to the kind of experiment: MST; nonspecific; Full-length MST: 50 mM Tris pH 7.5, 5 mM MgCl2, 300 mM NaCl, 2% glycerol, 50 mM Arg-Glu, 1 mM TCEP, 0.1% Triton X-100, 0.1 mg/ml BSA, 30 nM Cy5-DNA, room temp. The conditions noted are these: protein: recombinant, tags: Ni-NTA purified.

Data set [4] addresses T4, H19Y (PAI K14R/H19Y/K33A) (synthetic Sleeping Beauty transposon, UniProt PDB:6URS_1, K14R;H19Y;K33A). As to the kind of experiment: NMR; HSQC, pH 5.2, 35 C, 1:4.5 protein:DNA; Full-length MST: 50 mM Tris pH 7.5, 5 mM MgCl2, 300 mM NaCl, 2% glycerol, 50 mM Arg-Glu, 1 mM TCEP, 0.1% Triton X-100, 0.1 mg/ml BSA, 30 nM Cy5-DNA, room temp. To be noted: protein: recombinant; tags: Ni-NTA purified; label: 5' Cy5 on forward strand (MST).

For data set [5], the target named is T1, SB100X transposase. As to the kind of experiment: fluorescence anisotropy; Full-length MST: 50 mM Tris pH 7.5, 5 mM MgCl2, 300 mM NaCl, 2% glycerol, 50 mM Arg-Glu, 1 mM TCEP, 0.1% Triton X-100, 0.1 mg/ml BSA, 30 nM Cy5-DNA, room temp. The conditions noted are these: protein: recombinant; tags: Ni-NTA purified; label: 5' Cy5 on forward strand (MST).
The target of data set [6] is T2, SB10 transposase. The data set is described as above. The conditions noted are these: protein: recombinant; tags: Ni-NTA purified; label: 5' Cy5 on forward strand (MST).
For data set [7], the target named is T5, SB10-H19Y (synthetic Sleeping Beauty transposon, H19Y). Described as above. The conditions noted are these: protein: recombinant; tags: Ni-NTA purified; label: 5' Cy5 on forward strand (MST).
Data set [8] concerns the target T3, SB100X-H19Y. As to the kind of experiment: MST; Full-length MST: 50 mM Tris pH 7.5, 5 mM MgCl2, 300 mM NaCl, 2% glycerol, 50 mM Arg-Glu, 1 mM TCEP, 0.1% Triton X-100, 0.1 mg/ml BSA, 30 nM Cy5-DNA, room temp. To be noted: protein: recombinant; tags: Ni-NTA purified; label: 5' Cy5 on forward strand (MST).
Data set [9] concerns the target T5, SB10-H19Y. The description is as above. To be noted: protein: recombinant; tags: Ni-NTA purified; label: 5' Cy5 on forward strand (MST).
In data set [10] the target is T1, SB100X transposase. The data set can be described thus: MST; specific (first) transition; Full-length MST: 50 mM Tris pH 7.5, 5 mM MgCl2, 300 mM NaCl, 2% glycerol, 50 mM Arg-Glu, 1 mM TCEP, 0.1% Triton X-100, 0.1 mg/ml BSA, 30 nM Cy5-DNA, room temp. To be noted: protein: recombinant; tags: Ni-NTA purified; label: 5' Cy5 on forward strand (MST).
For data set [11], the target named is T2, SB10 transposase. Described as above. The conditions noted are these: protein: recombinant; tags: Ni-NTA purified; label: 5' Cy5 on forward strand (MST).
Data set [12] has as its target T1, SB100X transposase. As to the kind of experiment: fluorescence lifetime; Full-length MST: 50 mM Tris pH 7.5, 5 mM MgCl2, 300 mM NaCl, 2% glycerol, 50 mM Arg-Glu, 1 mM TCEP, 0.1% Triton X-100, 0.1 mg/ml BSA, 30 nM Cy5-DNA, room temp. The conditions noted are these: protein: recombinant; tags: Ni-NTA purified; label: 5' Cy5 on forward strand (MST).
For data set [13], the target named is T2, SB10 transposase. Described as above. The conditions noted are these: protein: recombinant; tags: Ni-NTA purified; label: 5' Cy5 on forward strand (MST).
Data set [14] has as its target T5, SB10-H19Y. The description is as above. The conditions noted are these: protein: recombinant; tags: Ni-NTA purified; label: 5' Cy5 on forward strand (MST).
Data set [15] concerns the target T3, SB100X-H19Y. As to the kind of experiment: fluorescence anisotropy; Full-length MST: 50 mM Tris pH 7.5, 5 mM MgCl2, 300 mM NaCl, 2% glycerol, 50 mM Arg-Glu, 1 mM TCEP, 0.1% Triton X-100, 0.1 mg/ml BSA, 30 nM Cy5-DNA, room temp. To be noted: protein: recombinant; tags: Ni-NTA purified; label: 5' Cy5 on forward strand (MST). In general terms: Fluorescence polarisation rises when a labelled molecule tumbles more slowly, as on binding a larger partner.

Data set [16] concerns the target T4, H19Y (PAI K14R/H19Y/K33A). The data set can be described thus: NMR; HSQC and PFG diffusion, pH 5.2, 35 C, 1:5; monomeric complex; Full-length MST: 50 mM Tris pH 7.5, 5 mM MgCl2, 300 mM NaCl, 2% glycerol, 50 mM Arg-Glu, 1 mM TCEP, 0.1% Triton X-100, 0.1 mg/ml BSA, 30 nM Cy5-DNA, room temp. To be noted: protein: recombinant; tags: Ni-NTA purified; label: 5' Cy5 on forward strand (MST).

Data set [17] has as its target T3, SB100X-H19Y. As to the kind of experiment: fluorescence lifetime; Full-length MST: 50 mM Tris pH 7.5, 5 mM MgCl2, 300 mM NaCl, 2% glycerol, 50 mM Arg-Glu, 1 mM TCEP, 0.1% Triton X-100, 0.1 mg/ml BSA, 30 nM Cy5-DNA, room temp. To be noted: protein: recombinant; tags: Ni-NTA purified; label: 5' Cy5 on forward strand (MST).
Data set [18] has as its target T4, H19Y (PAI K14R/H19Y/K33A). The data set can be described thus: NMR; HSQC and PFG diffusion, pH 5.2, 35 C; monomeric complex; Full-length MST: 50 mM Tris pH 7.5, 5 mM MgCl2, 300 mM NaCl, 2% glycerol, 50 mM Arg-Glu, 1 mM TCEP, 0.1% Triton X-100, 0.1 mg/ml BSA, 30 nM Cy5-DNA, room temp. To be noted: protein: recombinant; tags: Ni-NTA purified; label: 5' Cy5 on forward strand (MST).

The record followed here is article PMC11754664, “DNA binding and transposition activity of the Sleeping Beauty transposase: role of structural stability of the primary DNA-binding domain”.

B1: NS1 (dsDNA)
DNA 1: ACCTTCCTCCGCAATACTCCCCCAGGT
DNA 2: ACCTGGGGGAGTATTGCGGAGGAAGGT
Consider B1, for which the results for the Kd in data set [1], in data set [2] and in data set [3] (label: Cy5 (5' forward strand)) were 560 ± 40 nM, 2600 ± 160 nM and 2.71 ± 0.21 µM, respectively.

B2: DR-core (dsDNA)
DNA 1: TCGGAAGTTTACATACAC
DNA 2: GTGTATGTAAACTTCCGA
B2: in [4], the binding result is given as “binds”. The Kd (usually a measure of binding affinity in units of concentration) was determined as 35.1 ± 6.6 nM in data set [5]; 37 ± 4 nM in [6]; 51.3 ± 8.3 nM in data set [7]; 31.2 ± 11.1 nM in [8]; 31.1 ± 2.3 nM in [9]; 17.3 ± 1.1 nM in [10]. Further, the Kd in [11] worked out at 25.3 ± 0.9 nM; in [12] it was 31.6 ± 3.4 nM; in data set [13] it was 29.4 ± 2 nM; in data set [14], 45.4 ± 4.8 nM.

B3: Li (dsDNA)
DNA 1: TCCAGTGGGTCAGAAGTTTACATACACTAAGT
DNA 2: ACTTAGTGTATGTAAACTTCTGACCCACTGGA
For B3, the Kd in data set [5] amounted to 27.6 ± 4.9 nM; in data set [15], 16 ± 3.2 nM; in data set [6], 19.3 ± 2.8 nM; in [7] it was 18.2 ± 2.2 nM; in data set [8] it was 10.3 ± 0.8 nM; in [9], 10.2 ± 0.9 nM. For the same molecule, the Kd in [10] is 23.6 ± 2.2 nM; in data set [11] it was 17.3 ± 1.2 nM; in [12] it was 25.9 ± 2.3 nM; in [17], 16.2 ± 2.3 nM; in [13], 17.2 ± 0.8 nM; in data set [14] it was 16 ± 0.7 nM. Also, the binding result in data set [16] is “binds”.

B4: Lo (dsDNA)
DNA 1: CAGTTGAAGTCGGAAGTTTACATACACTTAAG
DNA 2: CTTAAGTGTATGTAAACTTCCGACTTCAACTG
For B4, the Kd in [5] is 13.7 ± 2.8 nM; in data set [15] it was 17.3 ± 2.2 nM; in data set [6], 23.9 ± 2.8 nM; in data set [7], 9.73 ± 2.5 nM; in [8], 29.7 ± 3.5 nM; in data set [9], 11.6 ± 1.8 nM. For the same molecule, the Kd in data set [10] was found to be 23 ± 1.9 nM; in [11], 16.6 ± 2.6 nM; in data set [12] it was 16 ± 2.6 nM; in data set [17], 20.6 ± 0.8 nM; in data set [13], 23 ± 2.2 nM; in data set [14], 13.2 ± 1.1 nM. Besides, the binding result in data set [18] is “binds”.

B5: NS2 (dsDNA)
DNA 1: CGGTCTTTCCGTCTT
DNA 2: AAGACGGAAAGACCG
With B5, the dissociation constant (Kd) in data set [3] was 3.43 ± 0.24 µM.
